The results in this text go back to article PMC8217331 (Neuron, 2021).

B1: Rapsn-EGFP, purified (natural protein, UniProt P12672 1-412, looked up)
chain: MGQDQTKQQIEKGLQLYQSNQTEKALQVWMKVLEKGSDLVGRFRVLGCLVTAHSEMGRYKEMLKFAVVQIDTARGLEDADFLLESYLNLARSNEKLCEFHKTISYCKTCLGLPGTRAGAQLGGQVSLSMGNAFLGLSLFQKALESFEKALRYAHNNDDTMLECRVCCSLGSFYAQVKDYEKALFFPCKAAELVNDYGKGWSLKYRAMSQYHMAVAYRLLGHLGSAMECCEESMKIALQHGDRPLQALCLLCFADIHRSRGDLETAFPRYDSAMSIMTEIGNRLGQVHVLLGVAKCWMARKVQDKALDAIEKAQDLAEEVGNKLSQLKLHCLSESIYRSKGLQRELRTHVVRFHECVEETELYCGLCGESIGERNSRLQALPCSHIFHLRCLQNNGTRSCPNCRRSSMKPGFV

In test [1] the target is α-actinin2 (aa 1M-894L), purified ( (the printed UniProt entry …, UniProt Q9JI91 1-894, CF555 label (Mix-n-Stain CF555))). As to the kind of experiment: co-condensation into droplets.
Sequence of α-actinin2 (aa 1M-894L), purified ( (Q9JI91 whole entry): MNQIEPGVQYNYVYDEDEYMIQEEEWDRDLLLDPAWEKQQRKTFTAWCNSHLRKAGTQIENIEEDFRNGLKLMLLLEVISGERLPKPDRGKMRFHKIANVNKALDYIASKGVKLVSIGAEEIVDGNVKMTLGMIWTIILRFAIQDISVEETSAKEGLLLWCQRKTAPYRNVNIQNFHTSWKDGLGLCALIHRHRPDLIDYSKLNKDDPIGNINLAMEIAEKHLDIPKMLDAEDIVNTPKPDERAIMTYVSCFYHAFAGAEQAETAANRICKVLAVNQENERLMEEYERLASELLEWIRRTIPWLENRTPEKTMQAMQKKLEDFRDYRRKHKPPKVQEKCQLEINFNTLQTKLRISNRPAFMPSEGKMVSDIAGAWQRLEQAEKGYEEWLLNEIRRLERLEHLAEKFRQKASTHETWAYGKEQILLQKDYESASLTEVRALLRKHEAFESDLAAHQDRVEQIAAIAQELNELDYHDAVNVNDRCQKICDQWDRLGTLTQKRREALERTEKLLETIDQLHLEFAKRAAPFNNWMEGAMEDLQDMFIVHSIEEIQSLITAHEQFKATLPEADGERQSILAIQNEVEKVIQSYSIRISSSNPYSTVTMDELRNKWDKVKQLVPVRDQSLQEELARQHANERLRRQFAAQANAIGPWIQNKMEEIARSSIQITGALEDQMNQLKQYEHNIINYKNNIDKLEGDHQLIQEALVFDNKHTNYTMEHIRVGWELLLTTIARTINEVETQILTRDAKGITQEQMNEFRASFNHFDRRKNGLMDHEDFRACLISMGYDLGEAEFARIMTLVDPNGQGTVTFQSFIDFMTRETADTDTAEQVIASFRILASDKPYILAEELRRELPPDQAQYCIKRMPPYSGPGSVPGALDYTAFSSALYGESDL
The target of the test “Rapsn-EGFP, purified” is B1. In words: co-condensation into droplets.

Consider B1, for which the binding result in test [1] is given as “binds”.

B2: GST-β-dystroglycan (aa 773Y-893P) (domain or fragment, UniProt Q62165 773-893, looked up)
chain: YRKKRKGKLTLEDQATFIKKGVPIIFADELDDSKPPPSSSMPLILQEEKAPLPPPEYPNQSMPETTPLNQDTVGEYTPLRDEDPNAPPYQPPPPFTAPMEGKGSRPKNMTPYRSPPPYVPP
modifications: CF555 label (Mix-n-Stain CF555)
As to B2, the binding result with Rapsn-EGFP, purified is reported as “binds”.

B3: GST-MACF1 (aa 1M-293I) (domain or fragment, UniProt Q9QXZ0 1-293, looked up)
chain: MSSSDEETLSERSCRSERSCRSERSYRSERSGSLSPCPPGDTLPWNLPLHEQKKRKSQDSVLDPAERAVVRVADERDRVQKKTFTKWVNKHLMKVRKHINDLYEDLRDGHNLISLLEVLSGIKLPREKGRMRFHRLQNVQIALDFLKQRQVKLVNIRNDDITDGNPKLTLGLIWTIILHFQISDIYISGESGDMSAKEKLLLWTQKVTAGYTGVKCTNFSSCWSDGKMFNALIHRYRPDLVDMERVQVQSNRENLEQAFEVAERLGVTRLLDAEDVDVPSPDEKSVITYVSSI
modifications: CF555 label (Mix-n-Stain CF555)
B3: the binding result with Rapsn-EGFP, purified is listed as “binds”.

B4: GST-AChR-α (loop between 3rd and 4th transmembrane domains) (domain or fragment, UniProt P04756 317-428, looked up)
chain: NTHHRSPSTHIMPEWVRKVFIDTIPNIMFFSTMKRPSRDKQEKRIFTEDIDISDISGKPGPPPMGFHSPLIKHPEVKSAIEGVKYIAETMKSDQESNNAAEEWKYVAMVMDH
modifications: CF555 label (Mix-n-Stain CF555)
Consider B4, for which, in the test with Rapsn-EGFP, purified, the binding result is “binds”.

B5: GST-AChR-β (loop between 3rd and 4th transmembrane domains) (domain or fragment, UniProt P09690 333-469, looked up)
chain: HHRSPHTHQMPFWVRQIFIHKLPPYLGLKRPKPERDQLPEPHHSLSPRSGWGRGTDEYFIRKPPSDFLFPKLNRFQPESSAPDLRRFIDGPTRAVGLPQELREVISSISYMARQLQEQEDHDALKEDWQFVAMVVDR
modifications: CF555 label (Mix-n-Stain CF555)
As to B5, in the test with Rapsn-EGFP, purified, the binding result is on record as “binds”.
